Measurements taken from US20260167699A1 (Chugai, published 2026).

B1: GpH7-A5/GpH7-B3 variant I332_15Y/GpL16-k0 (antibody, human IgG1, kappa)
heavy 1: not shown
heavy 2: not shown
light: DIVMTQSPLSLPVTPGEPASISCQASESLVHSNRNTYLHWYLQKPGQSPQLLIYKVSNRFSGVPDRFSGSGSGTDFTLKISRVEAEDVGVYYCSQNTHVPPTFGQGTKVEIERTVAAPSVFIFPPSDEQLKSGTASVVCLLNNFYPREAKVQWKVDNALQSGNSQESVTEQDSKDSTYSLSSTLTLSKADYEKHKVYACEVTHQGLSSPVTKSFNRGEC
notes: heterodimerized IgG1 (He Ab), mutation in one H chain only; also called He Ab
B2: GpH7-A5/GpH7-B3 variant I336_08L/GpL16-k0 (antibody, human IgG1, kappa)
heavy 1: not shown
heavy 2: not shown
light: DIVMTQSPLSLPVTPGEPASISCQASESLVHSNRNTYLHWYLQKPGQSPQLLIYKVSNRFSGVPDRFSGSGSGTDFTLKISRVEAEDVGVYYCSQNTHVPPTFGQGTKVEIERTVAAPSVFIFPPSDEQLKSGTASVVCLLNNFYPREAKVQWKVDNALQSGNSQESVTEQDSKDSTYSLSSTLTLSKADYEKHKVYACEVTHQGLSSPVTKSFNRGEC
notes: as for B1
B3: GpH7-A5/GpH7-B3 variant I336_10E/GpL16-k0 (antibody, human IgG1, kappa)
heavy 1: not shown
heavy 2: not shown
light: DIVMTQSPLSLPVTPGEPASISCQASESLVHSNRNTYLHWYLQKPGQSPQLLIYKVSNRFSGVPDRFSGSGSGTDFTLKISRVEAEDVGVYYCSQNTHVPPTFGQGTKVEIERTVAAPSVFIFPPSDEQLKSGTASVVCLLNNFYPREAKVQWKVDNALQSGNSQESVTEQDSKDSTYSLSSTLTLSKADYEKHKVYACEVTHQGLSSPVTKSFNRGEC
notes: as for B1
B4: GpH7-A5/GpH7-B3 variant I332_20W/GpL16-k0 (antibody, human IgG1, kappa)
heavy 1: not shown
heavy 2: not shown
light: DIVMTQSPLSLPVTPGEPASISCQASESLVHSNRNTYLHWYLQKPGQSPQLLIYKVSNRFSGVPDRFSGSGSGTDFTLKISRVEAEDVGVYYCSQNTHVPPTFGQGTKVEIERTVAAPSVFIFPPSDEQLKSGTASVVCLLNNFYPREAKVQWKVDNALQSGNSQESVTEQDSKDSTYSLSSTLTLSKADYEKHKVYACEVTHQGLSSPVTKSFNRGEC
notes: as for B1
B5: GpH7-A5/GpH7-B3 variant I336_09D/GpL16-k0 (antibody, human IgG1, kappa)
heavy 1: not shown
heavy 2: not shown
light: DIVMTQSPLSLPVTPGEPASISCQASESLVHSNRNTYLHWYLQKPGQSPQLLIYKVSNRFSGVPDRFSGSGSGTDFTLKISRVEAEDVGVYYCSQNTHVPPTFGQGTKVEIERTVAAPSVFIFPPSDEQLKSGTASVVCLLNNFYPREAKVQWKVDNALQSGNSQESVTEQDSKDSTYSLSSTLTLSKADYEKHKVYACEVTHQGLSSPVTKSFNRGEC
notes: as for B1
B6: GpH7-A5/GpH7-B3 variant I332_19Q/GpL16-k0 (antibody, human IgG1, kappa)
heavy 1: not shown
heavy 2: not shown
light: DIVMTQSPLSLPVTPGEPASISCQASESLVHSNRNTYLHWYLQKPGQSPQLLIYKVSNRFSGVPDRFSGSGSGTDFTLKISRVEAEDVGVYYCSQNTHVPPTFGQGTKVEIERTVAAPSVFIFPPSDEQLKSGTASVVCLLNNFYPREAKVQWKVDNALQSGNSQESVTEQDSKDSTYSLSSTLTLSKADYEKHKVYACEVTHQGLSSPVTKSFNRGEC
notes: as for B1
B7: GpH7-A5/GpH7-B3 variant I332_16H/GpL16-k0 (antibody, human IgG1, kappa)
heavy 1: not shown
heavy 2: not shown
light: DIVMTQSPLSLPVTPGEPASISCQASESLVHSNRNTYLHWYLQKPGQSPQLLIYKVSNRFSGVPDRFSGSGSGTDFTLKISRVEAEDVGVYYCSQNTHVPPTFGQGTKVEIERTVAAPSVFIFPPSDEQLKSGTASVVCLLNNFYPREAKVQWKVDNALQSGNSQESVTEQDSKDSTYSLSSTLTLSKADYEKHKVYACEVTHQGLSSPVTKSFNRGEC
notes: as for B1
B8: GpH7-A5/GpH7-B3 variant I336_06M/GpL16-k0 (antibody, human IgG1, kappa)
heavy 1: not shown
heavy 2: not shown
light: DIVMTQSPLSLPVTPGEPASISCQASESLVHSNRNTYLHWYLQKPGQSPQLLIYKVSNRFSGVPDRFSGSGSGTDFTLKISRVEAEDVGVYYCSQNTHVPPTFGQGTKVEIERTVAAPSVFIFPPSDEQLKSGTASVVCLLNNFYPREAKVQWKVDNALQSGNSQESVTEQDSKDSTYSLSSTLTLSKADYEKHKVYACEVTHQGLSSPVTKSFNRGEC
notes: as for B1
B9: GpH7-A5/GpH7-B3 variant I336_03V/GpL16-k0 (antibody, human IgG1, kappa)
heavy 1: not shown
heavy 2: not shown
light: DIVMTQSPLSLPVTPGEPASISCQASESLVHSNRNTYLHWYLQKPGQSPQLLIYKVSNRFSGVPDRFSGSGSGTDFTLKISRVEAEDVGVYYCSQNTHVPPTFGQGTKVEIERTVAAPSVFIFPPSDEQLKSGTASVVCLLNNFYPREAKVQWKVDNALQSGNSQESVTEQDSKDSTYSLSSTLTLSKADYEKHKVYACEVTHQGLSSPVTKSFNRGEC
notes: as for B1
B10: GpH7-A5/GpH7-B3 variant I336_01G/GpL16-k0 (antibody, human IgG1, kappa)
heavy 1: not shown
heavy 2: not shown
light: DIVMTQSPLSLPVTPGEPASISCQASESLVHSNRNTYLHWYLQKPGQSPQLLIYKVSNRFSGVPDRFSGSGSGTDFTLKISRVEAEDVGVYYCSQNTHVPPTFGQGTKVEIERTVAAPSVFIFPPSDEQLKSGTASVVCLLNNFYPREAKVQWKVDNALQSGNSQESVTEQDSKDSTYSLSSTLTLSKADYEKHKVYACEVTHQGLSSPVTKSFNRGEC
notes: as for B1
B11: GpH7-A5/GpH7-B3 variant I336_04F/GpL16-k0 (antibody, human IgG1, kappa)
heavy 1: not shown
heavy 2: not shown
light: DIVMTQSPLSLPVTPGEPASISCQASESLVHSNRNTYLHWYLQKPGQSPQLLIYKVSNRFSGVPDRFSGSGSGTDFTLKISRVEAEDVGVYYCSQNTHVPPTFGQGTKVEIERTVAAPSVFIFPPSDEQLKSGTASVVCLLNNFYPREAKVQWKVDNALQSGNSQESVTEQDSKDSTYSLSSTLTLSKADYEKHKVYACEVTHQGLSSPVTKSFNRGEC
notes: as for B1
B12: GpH7-A5/GpH7-B3 variant I336_02A/GpL16-k0 (antibody, human IgG1, kappa)
heavy 1: not shown
heavy 2: not shown
light: DIVMTQSPLSLPVTPGEPASISCQASESLVHSNRNTYLHWYLQKPGQSPQLLIYKVSNRFSGVPDRFSGSGSGTDFTLKISRVEAEDVGVYYCSQNTHVPPTFGQGTKVEIERTVAAPSVFIFPPSDEQLKSGTASVVCLLNNFYPREAKVQWKVDNALQSGNSQESVTEQDSKDSTYSLSSTLTLSKADYEKHKVYACEVTHQGLSSPVTKSFNRGEC
notes: as for B1
B13: GpH7-A5/GpH7-B3 variant I332_18N/GpL16-k0 (antibody, human IgG1, kappa)
heavy 1: not shown
heavy 2: not shown
light: DIVMTQSPLSLPVTPGEPASISCQASESLVHSNRNTYLHWYLQKPGQSPQLLIYKVSNRFSGVPDRFSGSGSGTDFTLKISRVEAEDVGVYYCSQNTHVPPTFGQGTKVEIERTVAAPSVFIFPPSDEQLKSGTASVVCLLNNFYPREAKVQWKVDNALQSGNSQESVTEQDSKDSTYSLSSTLTLSKADYEKHKVYACEVTHQGLSSPVTKSFNRGEC
notes: as for B1

Legend:
Assay in all cases: SPR; % of GpH7-A5/GpH7-B3/GpL16-k0
[1] = target: T1, FcγRIa extracellular domain with C-terminal His tag (human, UniProt P12314 16-292)
T1 construct: extracellular domain; also called 1a; CD64

[2] = target: T2, FcγRIIa(R) extracellular domain with C-terminal His tag (human, UniProt P12318 34-217)
T2 construct: extracellular domain; R131 allotype; also called 2aR; CD32
T2 sequence: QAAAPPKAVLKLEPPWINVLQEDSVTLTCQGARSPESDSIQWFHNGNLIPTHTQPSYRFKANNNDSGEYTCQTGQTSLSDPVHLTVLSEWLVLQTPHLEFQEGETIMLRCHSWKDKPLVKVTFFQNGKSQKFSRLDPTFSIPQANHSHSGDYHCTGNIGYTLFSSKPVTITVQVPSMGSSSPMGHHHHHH

[3] = target: T3, FcγRIIa(H) extracellular domain with C-terminal His tag (human, UniProt P12318 34-217)
T3 construct: extracellular domain; H131 allotype; also called 2aH; CD32
T3 sequence: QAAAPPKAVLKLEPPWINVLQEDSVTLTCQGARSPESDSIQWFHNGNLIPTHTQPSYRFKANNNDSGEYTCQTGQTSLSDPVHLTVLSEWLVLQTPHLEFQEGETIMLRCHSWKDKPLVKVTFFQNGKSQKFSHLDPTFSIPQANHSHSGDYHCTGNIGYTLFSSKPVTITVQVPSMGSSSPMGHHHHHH

[4] = target: T4, FcγRIIb extracellular domain with C-terminal His tag (human, UniProt P31994 43-217)
T4 construct: extracellular domain; also called 2b; CD32
T4 sequence: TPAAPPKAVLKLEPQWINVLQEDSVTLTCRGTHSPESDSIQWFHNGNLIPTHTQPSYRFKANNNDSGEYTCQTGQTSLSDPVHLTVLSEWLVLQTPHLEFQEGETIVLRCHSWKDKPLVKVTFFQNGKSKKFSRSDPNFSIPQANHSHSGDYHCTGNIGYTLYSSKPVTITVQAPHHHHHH

[5] = target: T5, FcγRIIIa extracellular domain with C-terminal His tag (human, UniProt P08637 17-208)
T5 construct: extracellular domain; also called 3a; CD16
T5 sequence (P08637 other isoform, or with tags, fused parts or gaps): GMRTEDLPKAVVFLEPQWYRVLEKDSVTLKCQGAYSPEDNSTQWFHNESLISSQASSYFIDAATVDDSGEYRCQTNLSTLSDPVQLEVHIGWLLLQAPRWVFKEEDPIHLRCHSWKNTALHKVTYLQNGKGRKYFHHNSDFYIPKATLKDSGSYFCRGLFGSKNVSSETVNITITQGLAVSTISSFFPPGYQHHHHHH

T1 sequence (P12314 other isoform, or with tags, fused parts or gaps): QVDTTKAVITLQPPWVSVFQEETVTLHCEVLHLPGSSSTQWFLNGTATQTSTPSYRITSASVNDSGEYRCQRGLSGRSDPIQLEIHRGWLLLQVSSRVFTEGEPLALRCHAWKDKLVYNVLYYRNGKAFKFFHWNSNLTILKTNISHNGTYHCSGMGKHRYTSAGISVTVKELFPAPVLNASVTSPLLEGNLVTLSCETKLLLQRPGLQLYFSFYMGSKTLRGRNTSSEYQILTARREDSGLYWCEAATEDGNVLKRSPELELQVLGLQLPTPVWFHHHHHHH

Row | Binder | He/Con 1a [1] [%] | He/Con 2aR [2] [%] | He/Con 2aH [3] [%] | He/Con 2b [4] [%] | He/Con 3a [5] [%]
1 | B1 | 101 | 109 | 119 | 112 | 92.4
2 | B2 | 111 | 116 | 109 | 117 | 102
3 | B3 | 111 | 104 | 105 | 98.2 | 114
4 | B4 | 104 | 117 | 115 | 102 | 116
5 | B5 | 107 | 104 | 100 | 101 | 102
6 | B6 | 103 | 95.1 | 112 | 104 | 101
7 | B7 | 100 | 97.6 | 113 | 103 | 89
8 | B8 | 112 | 112 | 110 | 111 | 104
9 | B9 | 108 | 104 | 106 | 98.7 | 107
10 | B10 | 112 | 104 | 100 | 98.4 | 94.6
11 | B11 | 109 | 105 | 98.3 | 99.6 | 93.2
12 | B12 | 109 | 100 | 102 | 92.8 | 106
13 | B13 | 99.3 | 98.3 | 114 | 99.6 | 84.9
